This assay has as its target T1, CD3 epsilon homodimer protein (UniProt P07766 23-126).
T1 construct: also called CD3 (CD3 epsilon)
The assay can be described thus: SPR, CD3e homodimer on chip.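 Note: surface plasmon resonance at 25 degrees C, antibodies flowed as analyte over CD3 epsilon homodimer amine-coupled to a CM4 chip, running buffer HBS-EP+.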 Background: SPR reads the build-up and loss of mass on a sensor chip optically.

T1 sequence (P07766 23-126): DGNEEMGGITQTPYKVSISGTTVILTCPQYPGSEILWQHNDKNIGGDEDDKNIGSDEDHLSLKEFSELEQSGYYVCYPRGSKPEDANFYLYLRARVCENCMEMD
Description: An appropriate amount of CD3 epsilon homodimer protein was immobilized onto Sensor chip CM4 (GE Healthcare Japan Corp.) by the amine coupling method. Then, the antibody having an appropriate concentration was injected thereto as an analyte and allowed to interact with the CD3 epsilon homodimer protein on the sensor chip. Then, the sensor chip was regenerated by the injection of 10 mmol/L glycine-HCl (pH 1.5). The assay was conducted at 25 degrees C., and HBS-EP+(GE Healthcare Japan Corp.) was used as a running buffer. […] Each parameter was calculated using Biacore T200 Evaluation Software (GE Healthcare Japan Corp.).
Specifically, when the amount of the GLS3000-containing antibody bound was defined as X and the amount of the L chain one-amino acid altered form bound was defined as Y, a value of Z (ratio of amounts bound)=Y/X was used.

B1: GLS3000 H27dG one-arm antibody (H chain CE115HA000) (antibody, human IgG1, kappa, L234A L235A, N297A, name in Kabat numbering)
heavy: QVQLVESGGGVVQPGRSLRLSCAASGFTFSNAWMHWVRQAPGKGLEWVAQIKAKSNNYATYYAESVKGRFTISRDDSKNSLYLQMNSLKTEDTAVYYCRYVHYGAYYGVDAWGQGTTVTVSSASTKGPSVFPLAPSSKSTSGGTAALGCLVKDYFPEPVTVSWNSGALTSGVHTFPAVLQSSGLYSLSSVVTVPSSSLGTQTYICNVNHKPSNTKVDKKVEPKSCDKTHTCPPCPAPEAAGGPSVFLFPPKPKDTLMISRTPEVTCVVVDVSHEDPEVKFNWYVDGVEVHNAKTKPREEQYASTYRVVSVLTVLHQDWLNGKEYKCKVSNKALPAPIEKTISKAKGQPREPQVYTLPPSRCELTKNQVSLSCAVKGFYPSDIAVEWESNGQPENNYKTTPPVLDSDGSFFLVSKLTVDKSRWQQGNVFSCSVMHEALHNHYTQKSLSLSPDYKDDDDK
chain: EPKSSDKTHTCPPCPAPELLGGPSVFLFPPKPKDTLMISRTPEVTCVVVDVSHEDPEVKFNWYVDGVEVHNAKTKPREEQYNSTYRVVSVLTVLHQDWLNGKEYKCKVSNKALPAPIEKTISKAKGQPREPQVCTLPPSRDELTKNQVSLWCLVKGFYPSDIAVEWESNGQPENNYKTTPPVLDSDGSFFLYSKLTVDKSRWQQGNVFSCSVMHEALHNRYTQKSLSLSP
light: DIVMTQSPLSLPVTPGEPASISCRSSQSLVGSNRNTYLHWYQQKPGQAPRLLIYKVSNRFSGVPDRFSGSGSGTDFTLKISRVEAEDVGVYYCGQGTQVPYTFGQGTKLEIKRTVAAPSVFIFPPSDEQLKSGTASVVCLLNNFYPREAKVQWKVDNALQSGNSQESVTEQDSKDSTYSLSSTLTLSKADYEKHKVYACEVTHQGLSSPVTKSFNRGEC
notes: one-arm antibody
For the molecule B1, the “ratio of amounts bound (altered form / unaltered GLS3000 antibody)” value stood at 0.3.

B2: GLS3000 H27dI one-arm antibody (H chain CE115HA000) (antibody, human IgG1, kappa, L234A L235A, N297A, name in Kabat numbering)
heavy: QVQLVESGGGVVQPGRSLRLSCAASGFTFSNAWMHWVRQAPGKGLEWVAQIKAKSNNYATYYAESVKGRFTISRDDSKNSLYLQMNSLKTEDTAVYYCRYVHYGAYYGVDAWGQGTTVTVSSASTKGPSVFPLAPSSKSTSGGTAALGCLVKDYFPEPVTVSWNSGALTSGVHTFPAVLQSSGLYSLSSVVTVPSSSLGTQTYICNVNHKPSNTKVDKKVEPKSCDKTHTCPPCPAPEAAGGPSVFLFPPKPKDTLMISRTPEVTCVVVDVSHEDPEVKFNWYVDGVEVHNAKTKPREEQYASTYRVVSVLTVLHQDWLNGKEYKCKVSNKALPAPIEKTISKAKGQPREPQVYTLPPSRCELTKNQVSLSCAVKGFYPSDIAVEWESNGQPENNYKTTPPVLDSDGSFFLVSKLTVDKSRWQQGNVFSCSVMHEALHNHYTQKSLSLSPDYKDDDDK
chain: EPKSSDKTHTCPPCPAPELLGGPSVFLFPPKPKDTLMISRTPEVTCVVVDVSHEDPEVKFNWYVDGVEVHNAKTKPREEQYNSTYRVVSVLTVLHQDWLNGKEYKCKVSNKALPAPIEKTISKAKGQPREPQVCTLPPSRDELTKNQVSLWCLVKGFYPSDIAVEWESNGQPENNYKTTPPVLDSDGSFFLYSKLTVDKSRWQQGNVFSCSVMHEALHNRYTQKSLSLSP
light: DIVMTQSPLSLPVTPGEPASISCRSSQSLVISNRNTYLHWYQQKPGQAPRLLIYKVSNRFSGVPDRFSGSGSGTDFTLKISRVEAEDVGVYYCGQGTQVPYTFGQGTKLEIKRTVAAPSVFIFPPSDEQLKSGTASVVCLLNNFYPREAKVQWKVDNALQSGNSQESVTEQDSKDSTYSLSSTLTLSKADYEKHKVYACEVTHQGLSSPVTKSFNRGEC
notes: one-arm antibody
With B2, the “ratio of amounts bound (altered form / unaltered GLS3000 antibody)” value stood at 0.26.

Source of the values: patent publication US20240270846A1 (published 2024).
